Assays:
[1] = target: mrtfa_human MRTFA (UniProt Q969V6)
[2] = target: mrtfa_human MRTFA (UniProt Q969V6); remark: listed apart in the source

UniProt Q969V6, sequence (Q969V6 whole entry): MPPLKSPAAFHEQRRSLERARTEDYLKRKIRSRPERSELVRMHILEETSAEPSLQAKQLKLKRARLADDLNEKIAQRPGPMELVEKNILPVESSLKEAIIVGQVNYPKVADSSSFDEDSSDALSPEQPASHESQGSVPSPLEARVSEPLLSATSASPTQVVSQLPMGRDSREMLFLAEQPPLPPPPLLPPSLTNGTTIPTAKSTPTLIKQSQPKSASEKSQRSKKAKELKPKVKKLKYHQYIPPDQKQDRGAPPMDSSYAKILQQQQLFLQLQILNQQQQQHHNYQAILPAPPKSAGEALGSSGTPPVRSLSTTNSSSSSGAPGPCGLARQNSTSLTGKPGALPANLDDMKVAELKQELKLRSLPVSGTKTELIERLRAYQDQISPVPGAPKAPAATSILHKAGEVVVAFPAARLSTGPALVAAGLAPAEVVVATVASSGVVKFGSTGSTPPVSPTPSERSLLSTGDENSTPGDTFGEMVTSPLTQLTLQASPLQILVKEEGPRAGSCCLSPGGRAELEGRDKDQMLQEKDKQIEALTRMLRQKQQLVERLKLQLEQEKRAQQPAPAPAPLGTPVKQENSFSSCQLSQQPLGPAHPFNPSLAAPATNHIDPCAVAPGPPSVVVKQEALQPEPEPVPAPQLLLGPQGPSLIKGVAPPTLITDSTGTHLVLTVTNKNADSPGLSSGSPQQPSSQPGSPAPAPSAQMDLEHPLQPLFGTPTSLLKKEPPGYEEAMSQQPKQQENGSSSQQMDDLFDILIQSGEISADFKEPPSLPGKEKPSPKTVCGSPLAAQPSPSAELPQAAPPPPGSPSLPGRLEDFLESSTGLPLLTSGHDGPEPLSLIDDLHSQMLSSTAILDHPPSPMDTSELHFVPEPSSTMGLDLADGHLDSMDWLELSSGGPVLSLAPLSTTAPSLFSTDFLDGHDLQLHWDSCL

effect of a mutation on the interaction [1]: decreasing interaction strength
effect of a mutation on the interaction [2]: disrupting interaction strength
Substance: Filamin-A (Homo sapiens), P21333 S2152A
